Substitutions are numbered along the chain they refer to. In names and notes the source's numbering stands.
T1: human FcγRIIaH extracellular domain, C-terminal His-tag (human, UniProt P12318 34-217)
T1 construct: also called human FcγRIIa (type H); FcgRIIaH
T1 sequence: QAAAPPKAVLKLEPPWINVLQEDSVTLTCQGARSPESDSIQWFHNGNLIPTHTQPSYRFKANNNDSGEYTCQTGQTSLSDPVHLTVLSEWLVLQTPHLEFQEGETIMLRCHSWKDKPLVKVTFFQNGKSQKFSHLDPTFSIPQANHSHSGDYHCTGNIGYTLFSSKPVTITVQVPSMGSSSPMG

T2: human FcγRIIb extracellular domain, C-terminal His-tag (human, UniProt P31994 43-217)
T2 construct: also called FcgRIIb (human)
T2 sequence: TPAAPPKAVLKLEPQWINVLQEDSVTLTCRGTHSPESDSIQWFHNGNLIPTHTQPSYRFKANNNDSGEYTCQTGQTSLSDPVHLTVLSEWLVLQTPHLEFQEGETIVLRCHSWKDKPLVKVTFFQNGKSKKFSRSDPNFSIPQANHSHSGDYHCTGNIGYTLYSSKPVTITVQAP

T3: human FcγRIIaR extracellular domain, C-terminal His-tag (human, UniProt P12318 34-217)
T3 construct: also called human FcγRIIa (type R); FcgRIIaR
T3 chain: T1 sequence with H134R

B1: GpH7-B3 variant G236N/GpL16-k0 (antibody, human IgG1, kappa)
heavy: not shown
light: DIVMTQSPLSLPVTPGEPASISCQASESLVHSNRNTYLHWYLQKPGQSPQLLIYKVSNRFSGVPDRFSGSGSGTDFTLKISRVEAEDVGVYYCSQNTHVPPTFGQGTKVEIERTVAAPSVFIFPPSDEQLKSGTASVVCLLNNFYPREAKVQWKVDNALQSGNSQESVTEQDSKDSTYSLSSTLTLSKADYEKHKVYACEVTHQGLSSPVTKSFNRGEC
B2: GpH7-B3 variant A327I/GpL16-k0 (antibody, human IgG1, kappa)
heavy: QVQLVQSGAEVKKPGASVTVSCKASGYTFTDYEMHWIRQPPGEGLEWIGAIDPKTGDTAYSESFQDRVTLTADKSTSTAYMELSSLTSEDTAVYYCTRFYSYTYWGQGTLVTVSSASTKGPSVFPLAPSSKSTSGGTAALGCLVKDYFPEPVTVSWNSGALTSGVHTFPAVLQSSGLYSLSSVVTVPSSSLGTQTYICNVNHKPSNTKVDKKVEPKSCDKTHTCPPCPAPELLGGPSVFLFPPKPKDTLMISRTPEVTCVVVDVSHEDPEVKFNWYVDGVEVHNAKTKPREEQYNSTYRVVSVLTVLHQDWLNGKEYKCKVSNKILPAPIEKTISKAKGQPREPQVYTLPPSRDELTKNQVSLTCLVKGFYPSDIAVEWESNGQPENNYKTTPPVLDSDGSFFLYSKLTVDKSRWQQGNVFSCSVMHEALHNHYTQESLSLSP
light: B1 light
B3: GpH7-B3 variant G236A/GpL16-k0 (antibody, human IgG1, kappa)
heavy: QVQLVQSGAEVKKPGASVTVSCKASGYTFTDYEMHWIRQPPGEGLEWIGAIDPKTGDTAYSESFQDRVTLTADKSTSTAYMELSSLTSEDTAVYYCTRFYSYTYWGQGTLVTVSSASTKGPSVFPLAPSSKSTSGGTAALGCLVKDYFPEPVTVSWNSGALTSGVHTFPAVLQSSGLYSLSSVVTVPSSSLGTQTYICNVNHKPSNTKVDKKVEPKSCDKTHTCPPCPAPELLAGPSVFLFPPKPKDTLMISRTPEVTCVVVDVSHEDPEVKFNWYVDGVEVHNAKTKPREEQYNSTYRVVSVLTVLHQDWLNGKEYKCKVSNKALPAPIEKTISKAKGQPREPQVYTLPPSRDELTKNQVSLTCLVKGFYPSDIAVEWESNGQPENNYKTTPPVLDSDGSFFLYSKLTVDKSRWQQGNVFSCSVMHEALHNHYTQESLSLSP
light: B1 light
B4: GpH7-B3 variant G236D/GpL16-k0 (antibody, human IgG1, kappa)
heavy: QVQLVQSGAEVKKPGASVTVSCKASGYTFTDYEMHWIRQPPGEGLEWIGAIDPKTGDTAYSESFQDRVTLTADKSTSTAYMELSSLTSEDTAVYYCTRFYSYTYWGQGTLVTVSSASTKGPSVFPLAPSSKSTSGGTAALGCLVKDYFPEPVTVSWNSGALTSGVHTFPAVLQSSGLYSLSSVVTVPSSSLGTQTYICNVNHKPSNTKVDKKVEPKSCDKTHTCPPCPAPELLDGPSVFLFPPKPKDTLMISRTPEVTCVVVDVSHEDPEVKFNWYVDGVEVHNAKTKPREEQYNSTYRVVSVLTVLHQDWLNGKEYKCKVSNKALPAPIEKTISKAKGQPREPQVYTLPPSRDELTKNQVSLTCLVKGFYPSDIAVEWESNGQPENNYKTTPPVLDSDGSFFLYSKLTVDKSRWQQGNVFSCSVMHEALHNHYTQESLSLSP
light: B1 light
B5: GpH7-B3 variant G236E/GpL16-k0 (antibody, human IgG1, kappa)
heavy: not shown
light: B1 light
B6: GpH7-B3 variant G236S/GpL16-k0 (antibody, human IgG1, kappa)
heavy: not shown
light: B1 light
B7: GpH7-B3 variant G237D/GpL16-k0 (antibody, human IgG1, kappa)
heavy: not shown
light: B1 light
B8: GpH7-B3 variant H268D/GpL16-k0 (antibody, human IgG1, kappa)
heavy: not shown
light: B1 light
B9: GpH7-B3 variant H268E/GpL16-k0 (antibody, human IgG1, kappa)
heavy: not shown
light: B1 light
B10: GpH7-B3 variant I332D/GpL16-k0 (antibody, human IgG1, kappa)
heavy: not shown
light: B1 light
B11: GpH7-B3 variant K326T/GpL16-k0 (antibody, human IgG1, kappa)
heavy: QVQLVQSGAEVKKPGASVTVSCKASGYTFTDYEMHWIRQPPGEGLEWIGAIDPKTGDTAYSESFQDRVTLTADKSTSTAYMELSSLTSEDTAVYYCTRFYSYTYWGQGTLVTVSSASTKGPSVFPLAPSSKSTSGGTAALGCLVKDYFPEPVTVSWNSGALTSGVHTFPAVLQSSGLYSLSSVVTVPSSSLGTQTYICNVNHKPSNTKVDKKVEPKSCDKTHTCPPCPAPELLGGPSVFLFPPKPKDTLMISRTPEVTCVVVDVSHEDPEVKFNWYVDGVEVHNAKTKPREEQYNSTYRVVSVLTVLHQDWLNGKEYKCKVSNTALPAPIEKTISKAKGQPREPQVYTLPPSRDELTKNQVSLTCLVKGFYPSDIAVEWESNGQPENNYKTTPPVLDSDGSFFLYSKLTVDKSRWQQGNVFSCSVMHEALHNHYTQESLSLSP
light: B1 light
B12: GpH7-B3 variant K334D/GpL16-k0 (antibody, human IgG1, kappa)
heavy: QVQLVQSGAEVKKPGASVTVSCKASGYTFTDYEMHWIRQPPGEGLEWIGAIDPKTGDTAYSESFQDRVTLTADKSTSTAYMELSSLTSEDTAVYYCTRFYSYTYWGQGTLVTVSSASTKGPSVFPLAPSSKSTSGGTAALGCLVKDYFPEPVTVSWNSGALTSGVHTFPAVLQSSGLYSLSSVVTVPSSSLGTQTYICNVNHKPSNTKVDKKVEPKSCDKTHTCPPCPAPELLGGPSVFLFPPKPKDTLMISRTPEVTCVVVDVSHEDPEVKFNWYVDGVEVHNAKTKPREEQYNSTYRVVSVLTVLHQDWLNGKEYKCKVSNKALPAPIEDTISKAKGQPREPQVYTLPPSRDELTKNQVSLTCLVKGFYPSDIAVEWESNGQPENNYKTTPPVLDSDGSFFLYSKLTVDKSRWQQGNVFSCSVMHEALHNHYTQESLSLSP
light: B1 light
B13: GpH7-B3 variant K334I/GpL16-k0 (antibody, human IgG1, kappa)
heavy: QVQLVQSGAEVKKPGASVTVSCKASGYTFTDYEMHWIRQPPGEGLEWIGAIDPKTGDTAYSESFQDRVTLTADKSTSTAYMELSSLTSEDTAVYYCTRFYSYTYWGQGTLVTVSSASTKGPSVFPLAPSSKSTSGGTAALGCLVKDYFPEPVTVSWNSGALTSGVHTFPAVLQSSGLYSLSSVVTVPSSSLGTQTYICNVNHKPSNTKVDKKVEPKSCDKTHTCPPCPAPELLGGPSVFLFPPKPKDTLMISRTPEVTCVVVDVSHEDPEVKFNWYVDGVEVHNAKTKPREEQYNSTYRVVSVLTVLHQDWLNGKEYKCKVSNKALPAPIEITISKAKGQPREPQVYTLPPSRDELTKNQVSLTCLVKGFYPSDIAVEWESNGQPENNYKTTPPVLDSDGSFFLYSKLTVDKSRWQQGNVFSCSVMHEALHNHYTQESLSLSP
light: B1 light
B14: GpH7-B3 variant K334M/GpL16-k0 (antibody, human IgG1, kappa)
heavy: not shown
light: B1 light
B15: GpH7-B3 variant K334V/GpL16-k0 (antibody, human IgG1, kappa)
heavy: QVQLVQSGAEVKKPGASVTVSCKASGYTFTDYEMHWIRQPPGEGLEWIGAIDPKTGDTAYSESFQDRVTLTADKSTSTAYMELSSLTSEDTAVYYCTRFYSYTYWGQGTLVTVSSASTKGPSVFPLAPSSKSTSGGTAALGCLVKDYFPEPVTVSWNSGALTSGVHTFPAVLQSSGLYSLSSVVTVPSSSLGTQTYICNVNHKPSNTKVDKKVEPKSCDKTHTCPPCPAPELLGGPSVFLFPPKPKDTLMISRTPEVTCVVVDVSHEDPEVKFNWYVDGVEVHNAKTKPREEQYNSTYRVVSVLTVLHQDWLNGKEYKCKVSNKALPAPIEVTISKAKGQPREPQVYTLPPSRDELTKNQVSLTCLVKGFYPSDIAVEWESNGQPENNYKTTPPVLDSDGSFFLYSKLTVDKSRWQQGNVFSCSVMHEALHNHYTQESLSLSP
light: B1 light
B16: GpH7-B3 variant K334Y/GpL16-k0 (antibody, human IgG1, kappa)
heavy: not shown
light: B1 light
B17: GpH7-B3 variant L234W/GpL16-k0 (antibody, human IgG1, kappa)
heavy: not shown
light: B1 light
B18: GpH7-B3 variant L234Y/GpL16-k0 (antibody, human IgG1, kappa)
heavy: not shown
light: B1 light
B19: GpH7-B3 variant L235W/GpL16-k0 (antibody, human IgG1, kappa)
heavy: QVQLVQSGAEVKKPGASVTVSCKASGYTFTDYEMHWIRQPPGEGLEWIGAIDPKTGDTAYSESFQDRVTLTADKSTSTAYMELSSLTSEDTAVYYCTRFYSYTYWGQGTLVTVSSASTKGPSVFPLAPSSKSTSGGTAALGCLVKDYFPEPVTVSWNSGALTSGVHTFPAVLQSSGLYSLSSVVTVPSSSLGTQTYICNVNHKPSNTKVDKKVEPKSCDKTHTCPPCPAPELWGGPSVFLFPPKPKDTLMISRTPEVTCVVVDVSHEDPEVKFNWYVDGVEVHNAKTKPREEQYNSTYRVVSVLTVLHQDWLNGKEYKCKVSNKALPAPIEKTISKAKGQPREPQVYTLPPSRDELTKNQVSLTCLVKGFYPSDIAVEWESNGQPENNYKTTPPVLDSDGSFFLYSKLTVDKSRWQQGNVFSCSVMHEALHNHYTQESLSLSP
light: B1 light
B20: GpH7-B3 variant L328T/GpL16-k0 (antibody, human IgG1, kappa)
heavy: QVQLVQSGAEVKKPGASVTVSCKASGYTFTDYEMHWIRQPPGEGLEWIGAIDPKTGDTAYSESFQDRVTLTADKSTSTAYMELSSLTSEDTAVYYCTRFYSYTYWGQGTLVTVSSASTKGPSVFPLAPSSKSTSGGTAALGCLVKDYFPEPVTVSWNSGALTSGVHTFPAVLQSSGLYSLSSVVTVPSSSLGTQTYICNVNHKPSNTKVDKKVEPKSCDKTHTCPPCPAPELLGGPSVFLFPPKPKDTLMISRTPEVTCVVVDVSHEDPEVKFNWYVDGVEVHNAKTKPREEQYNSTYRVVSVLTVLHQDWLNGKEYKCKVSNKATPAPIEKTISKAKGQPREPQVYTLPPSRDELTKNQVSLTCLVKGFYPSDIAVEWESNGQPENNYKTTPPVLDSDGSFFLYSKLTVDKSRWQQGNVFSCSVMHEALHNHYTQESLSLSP
light: B1 light
B21: GpH7-B3 variant N325E/GpL16-k0 (antibody, human IgG1, kappa)
heavy: not shown
light: B1 light
B22: GpH7-B3 variant P238Q/GpL16-k0 (antibody, human IgG1, kappa)
heavy: not shown
light: B1 light
B23: GpH7-B3 variant P271D/GpL16-k0 (antibody, human IgG1, kappa)
heavy: not shown
light: B1 light
B24: GpH7-B3 variant P271G/GpL16-k0 (antibody, human IgG1, kappa)
heavy: not shown
light: B1 light
B25: GpH7-B3 variant P331E/GpL16-k0 (antibody, human IgG1, kappa)
heavy: not shown
light: B1 light
B26: GpH7-B3 variant Q295L/GpL16-k0 (antibody, human IgG1, kappa)
heavy: not shown
light: B1 light
B27: GpH7-B3 variant S239I/GpL16-k0 (antibody, human IgG1, kappa)
heavy: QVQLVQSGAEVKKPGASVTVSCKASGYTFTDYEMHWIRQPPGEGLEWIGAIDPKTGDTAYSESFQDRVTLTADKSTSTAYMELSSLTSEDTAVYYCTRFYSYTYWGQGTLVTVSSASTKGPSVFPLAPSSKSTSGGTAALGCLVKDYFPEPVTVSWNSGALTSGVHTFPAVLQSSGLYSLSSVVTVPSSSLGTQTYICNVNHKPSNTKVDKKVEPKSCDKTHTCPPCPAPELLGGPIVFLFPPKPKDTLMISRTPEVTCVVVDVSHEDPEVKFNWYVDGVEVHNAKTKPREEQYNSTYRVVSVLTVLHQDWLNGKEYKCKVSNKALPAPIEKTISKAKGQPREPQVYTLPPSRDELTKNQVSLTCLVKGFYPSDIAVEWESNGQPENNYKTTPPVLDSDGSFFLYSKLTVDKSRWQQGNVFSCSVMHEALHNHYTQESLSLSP
light: B1 light
B28: GpH7-B3 variant S239N/GpL16-k0 (antibody, human IgG1, kappa)
heavy: not shown
light: B1 light
B29: GpH7-B3 variant S239P/GpL16-k0 (antibody, human IgG1, kappa)
heavy: not shown
light: B1 light
B30: GpH7-B3 variant S239V/GpL16-k0 (antibody, human IgG1, kappa)
heavy: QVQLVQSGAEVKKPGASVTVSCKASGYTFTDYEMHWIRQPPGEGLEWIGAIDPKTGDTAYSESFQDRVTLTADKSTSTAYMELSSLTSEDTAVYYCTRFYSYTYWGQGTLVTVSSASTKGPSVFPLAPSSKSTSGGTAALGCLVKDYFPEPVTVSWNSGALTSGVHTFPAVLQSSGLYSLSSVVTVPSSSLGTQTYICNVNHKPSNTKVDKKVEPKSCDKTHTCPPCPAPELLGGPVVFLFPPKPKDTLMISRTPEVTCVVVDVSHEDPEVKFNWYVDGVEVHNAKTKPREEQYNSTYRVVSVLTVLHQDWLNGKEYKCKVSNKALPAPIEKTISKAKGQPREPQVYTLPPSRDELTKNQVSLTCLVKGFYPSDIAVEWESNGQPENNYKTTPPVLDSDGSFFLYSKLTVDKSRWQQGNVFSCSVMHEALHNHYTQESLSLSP
light: B1 light

What was measured:
Experiment in all cases: SPR 25C; FcgR bound per captured antibody, relative to parent B3
[1] = molecular target: T1, human FcγRIIaH extracellular domain, …
Protocol: (§1) These Fc variants are referred to as B3 variants. B3 variants were expressed and the binding of protein-A purified antibodies to each FcγR (FcγRIIa type H. FcγRIIa type R, FcγRIIb, and FcγRIIIaF) was comprehensively evaluated as follows. Analysis of interaction between each altered antibody and the Fcγ receptor prepared as mentioned above was carried out using BIACORE® T100 (GE Healthcare), BIACORE® T200 (GE Healthcare), BIACORE® A100, or BIACORE® 4000. HBS-EP+(GE Healthcare) was used as the running buffer, and the measurement temperature was set to 25° C. Chips produced by immobilizing Protein A (Thermo Scientific), Protein A/G (Thermo Scientific), or Protein L (ACTIGEN or BioVision) by the amine coupling method to a Series S sensor Chip CM5 or CM4 (GE Healthcare) were used. After capturing of antibodies of interest onto these sensor chips, an Fcγ receptor diluted with the running buffer was allowed to interact, the amount bound to an antibody was measured. However, since the amount of Fcγ receptor bound depends on the amount of the captured antibodies, the amount of Fcγ receptor bound was divided by the amount of each antibody captured to obtain corrected values, and these values were compared. Furthermore, antibodies captured onto the chips were washed by 10 mM glycine-HCl pH1.5, and the chips were regenerated and used repeatedly. […] The value obtained by multiplying this value by 100 was used as an indicator of the relative FcγR-binding activity of each variant.

[2] = molecular target: T2, human FcγRIIb extracellular domain, …
Protocol: as §1

[3] = molecular target: T3, human FcγRIIaR extracellular domain, …
Protocol: as §1

Row | Binder | Binding to human FcgRs (parent B3 = 100) [1] | Binding to human FcgRs (parent B3 = 100) [2] | Binding to human FcgRs (parent B3 = 100) [3]
1 | B1 | 54 parent B3 = 100 | 75 parent B3 = 100 | 81 parent B3 = 100
2 | B2 | 37 parent B3 = 100 | 46 parent B3 = 100 | 12 parent B3 = 100
3 | B3 | 165 parent B3 = 100 | 94 parent B3 = 100 | 168 parent B3 = 100
4 | B4 | 109 parent B3 = 100 | 212 parent B3 = 100 | 91 parent B3 = 100
5 | B5 | 142 parent B3 = 100 | 117 parent B3 = 100 | 131 parent B3 = 100
6 | B6 | 147 parent B3 = 100 | 87 parent B3 = 100 | 161 parent B3 = 100
7 | B7 | 74 parent B3 = 100 | 95 parent B3 = 100 | 0 parent B3 = 100
8 | B8 | 173 parent B3 = 100 | 307 parent B3 = 100 | 142 parent B3 = 100
9 | B9 | 169 parent B3 = 100 | 283 parent B3 = 100 | 132 parent B3 = 100
10 | B10 | 129 parent B3 = 100 | 198 parent B3 = 100 | 139 parent B3 = 100
11 | B11 | 138 parent B3 = 100 | 195 parent B3 = 100 | 127 parent B3 = 100
12 | B12 | 97 parent B3 = 100 | 108 parent B3 = 100 | 72 parent B3 = 100
13 | B13 | 169 parent B3 = 100 | 174 parent B3 = 100 | 137 parent B3 = 100
14 | B14 | 151 parent B3 = 100 | 148 parent B3 = 100 | 127 parent B3 = 100
15 | B15 | 172 parent B3 = 100 | 184 parent B3 = 100 | 132 parent B3 = 100
16 | B16 | 157 parent B3 = 100 | 160 parent B3 = 100 | 131 parent B3 = 100
17 | B17 | 64 parent B3 = 100 | 90 parent B3 = 100 | 63 parent B3 = 100
18 | B18 | 38 parent B3 = 100 | 55 parent B3 = 100 | 50 parent B3 = 100
19 | B19 | 136 parent B3 = 100 | 130 parent B3 = 100 | 128 parent B3 = 100
20 | B20 | 156 parent B3 = 100 | 179 parent B3 = 100 | 135 parent B3 = 100
21 | B21 | 49 parent B3 = 100 | 40 parent B3 = 100 | 13 parent B3 = 100
22 | B22 | 19 parent B3 = 100 | 43 parent B3 = 100 | 4 parent B3 = 100
23 | B23 |  | 110 parent B3 = 100 | 55 parent B3 = 100
24 | B24 | 152 parent B3 = 100 | 252 parent B3 = 100 | 130 parent B3 = 100
25 | B25 | 96 parent B3 = 100 | 100 parent B3 = 100 | 67 parent B3 = 100
26 | B26 | 128 parent B3 = 100 | 156 parent B3 = 100 | 148 parent B3 = 100
27 | B27 | 82 parent B3 = 100 | 108 parent B3 = 100 | 75 parent B3 = 100
28 | B28 | 99 parent B3 = 100 | 124 parent B3 = 100 | 80 parent B3 = 100
29 | B29 | 49 parent B3 = 100 | 61 parent B3 = 100 | 
30 | B30 | 79 parent B3 = 100 | 107 parent B3 = 100 | 71 parent B3 = 100

Source: patent US20200317768A1 (published 2020)
